One substance from patent publication US20210238249 can be followed below.

Data set [1] concerns the target fusion protein TOM70-(GGGGS)3-UB-p53 (UniProt P07213).
Data set [2] deals with recombinant fusion protein TOM70-UB-p53 (UniProt P07213).

In the case of UBP1 enzyme, the “cleavage of the ubiquitin sequence by UBP1, 37 C for 1 hour, SDS-PAGE” value was “the 3′ end of ubiquitin was cleaved by UBP1 enzyme, and only p53 protein was dissociation as expected” in data set [1]; “the dissociation of the ubiquitin protein from the fusion protein did not occur at all by UBP1” in data set [2].
